Molecular target: wild-type FliM (Vibrio alginolyticus flagellar rotor C-ring protein) with an N-terminal His-tag (V. alginolyticus)
Test: SEC

wild-type FliM (Vibrio alginolyticus flagellar rotor C-ring protein) with an N-terminal His-tag (natural protein)
stoichiometry N: 2
